The record followed here is US20200277373A1, “ANTI-TREM2 ANTIBODIES AND METHODS OF USE THEREOF” (Denali Therapeutics Inc., priority 2017, published 2020).

For assay [1], the target named is T1, hTREM2 (Homo sapiens, UniProt Q9NZC2).
T1 construct: The ecto domain (residues 19-172) of TREM2 (UniProtKB—Q9NZC2); secretion signal of mouse Ig kappa chain V-III (P01661 aa 1-20) (N); made in house; host or cells: Expi293F
T1 sequence (Q9NZC2 19-172): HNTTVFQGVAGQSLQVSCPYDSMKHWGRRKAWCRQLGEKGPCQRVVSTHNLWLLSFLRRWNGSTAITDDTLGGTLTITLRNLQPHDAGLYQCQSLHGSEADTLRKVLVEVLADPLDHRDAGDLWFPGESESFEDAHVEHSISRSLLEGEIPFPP
In words: Biacore T200 binding kinetics to hTREM2. The note with it: analyte hTREM2. On the procedure:
The binding of the TREM2/TfR-binding protein RS9.F6/3C35.21.17 to TREM2 and TfR was measured using SPR on a Biacore T200 instrument. To measure TfR binding, anti-human-Fab was immobilized on a CM5 chip, and the TREM2/TfR-binding protein was captured. Full-length human TfR or human TfR apical domain at serial dilution (e.g., concentrations of 1-1000 nM) was flowed over the chip (180 second association time) and then allowed to dissociate. Fitting was performed using a 1:1 binding model. To measure TREM2 binding, anti-human-Fc antibody was immobilized on a CM5 chip, and the TREM2/TfR-binding protein was captured. A range of concentrations of recombinant TREM2-His protein were flowed over the chip, and allowed to associate and dissociate. The resulting sensograms were fitted using a 1:1 Langmuir model to estimate kon and koff (FIG. 10).
The affinities of RS9.F6/3C35.21.17 for human TREM2 and TfR were determined by surface plasmon resonance using a Biacore™ T200. Biacore Series S CM5 sensor chips were immobilized with a mixture of two monoclonal mouse anti-Fab antibodies (Human Fab capture kit from GE Healthcare). Serial 3-fold dilutions of each antigen were injected at a flow rate of 30 μL/min. The binding of the antigens to captured antibody was monitored for 30 to 180 seconds and then their dissociation was monitored for 30-300 seconds in HBS-EP+running buffer (GE, # BR100669). Binding response was corrected by subtracting the RU from a blank flow cell. A 1:1 Languir model of simultaneous fitting of kon and koff was used for kinetics analysis.

Assay [2] deals with human macrophages. As to the kind of experiment: Signaling pathway Alpha-LISA (pSYK, pERK1/2, pGSK3-beta, pAKT) in human macrophages. It is filed as cell-based. As to conditions: 15 minutes. Here is the method:
Anti-TREM2 antibodies were characterized for activation of several signaling pathways, SYK, ERK1/2, AKT and GSK3-beta. Human macrophages differentiated from peripheral monocytes were plated in 96-well plates at a density of 100,000 cell/well. The assay was tested in three conditions (0%, 0.5%, and 10% FBS in the media) for 3 hours. Cells were stimulated with the antibody RS9.F6, 24B4.A1, 8A11.B1, 3D3.A1, 54C2.A1, isotype control IgG2ak, rat anti-TREM2 from R&D, isotype control rat IgG2b, or no treatment (NT) for 15 minutes. The cell lysates were measured for p-Y525/526-SYK, p-T202/Y204-ERK1/2, p-S9-GSK3-beta, and p-S473-AKT using Alpha-LISA kits (Perkin Elmer). […] The antibodies stimulated p-GSK signal moderately (FIG. 6C).

In assay [3] the target is T2, soluble TREM2 (sTREM2) (Homo sapiens, UniProt Q9NZC2).
T2 construct: expressed in transfected cells
T2 sequence (Q9NZC2 19-230): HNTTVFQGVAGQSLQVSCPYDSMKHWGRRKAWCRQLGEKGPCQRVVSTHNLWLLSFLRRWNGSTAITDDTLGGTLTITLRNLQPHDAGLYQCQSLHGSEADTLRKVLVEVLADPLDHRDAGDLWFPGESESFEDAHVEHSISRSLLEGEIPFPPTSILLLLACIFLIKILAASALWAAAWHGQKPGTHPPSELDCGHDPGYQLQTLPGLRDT
T2 sequence (O43914 22-113 partner): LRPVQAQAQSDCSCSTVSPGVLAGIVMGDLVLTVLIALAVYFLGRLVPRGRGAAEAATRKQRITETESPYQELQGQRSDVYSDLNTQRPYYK
In words: Soluble TREM2 (TREM2 shedding) assay in HEK293 TREM2/DAP12 cells. In kind it is cell-based. Also noted: key to STREM2: NC = no change; −− = reduced sTREM2; ++ = increased sTREM2. As to conditions: change in sTREM2 levels. On the procedure:
HEK293 cells stably expressing human TREM2 and DAP12 were plated onto 96-well plates pre-coated with poly-D-lysine 4-16 hours prior to antibody treatment. Antibody supernatants or control antibodies were diluted into fresh complete media and added onto cells in triplicate. Cells were incubated with antibody containing media for 18 hours prior to removal of the cell supernatant for assay by TREM2 ELISA. Samples and standards were diluted 1:10 into blocking buffer (3% BSA/TBST) in the assay plate. Briefly, MSD small spot streptavidin plates were coated with biotinylated anti-hTREM2 polyclonal antibody (R&D Systems) overnight at 4° C. or 1 hour at room temperature. Plates were then blocked overnight at 4° C., or 1 hour at room temperature, with blocking buffer, 3% BSA/TBST. Plates were washed three times with TBST in a Biotek plate washer (used for all washes) prior to addition of diluent (blocking buffer) and denatured supernatants from cell culture. A TREM2-His protein diluted in 3% BSA/TBST was used as a standard for absolute quantification. Following 1 hour incubation at room temperature, plates were washed with TBST. The primary detection antibody, sulfo-tagged goat anti-human TREM2 (R&D Systems), diluted in 3% BSA/TBST was added and incubated for 1 hour at room temperature. After washing with TBST, MSD plates were developed using 2×MSD read buffer T, followed by detection using an MSD Sector plate reader. MSD values were converted to absolute quantities of sTREM2 by fitting a standard curve using Prism 7.0 software (Graphpad). Modulation of TREM2 shedding was represented as a ratio to cells cultured with no specific TREM2 antibody in the media.

Assay [4] has as its target T3, TREM2 (Homo sapiens, UniProt Q9NZC2).
T3 construct: expressed in transfected cells
As to the kind of experiment: FACS binning on human TREM2-HEK cells (competition with R&D antibody). In kind it is binding. The note with it: epitope bin, 100 nM antibody. Here is the method:
HEK293 overexpressing human TREM2 (H6) were harvested by 0.05% trypsin and incubated at 37° C. incubator for 2 hours for surface TREM2 recovery. After incubation, cells were washed with 1×PBS and FACS buffer (PBS+0.5% BSA) with human Trustain FcX solution (Biolegend, Cat #422302) was added at a density of 10^6/mL. Cells were seeded at 100,000 cells per well in a 96-well round-bottom and incubated 20 minutes at room temperature. After incubation, anti-TREM2 antibodies (100 nM) were added to the cells and the cells were incubated for 45 minutes on ice. After incubation, rat anti-h/mTREM2-APC antibody (1:100, R&D, Cat # FAB17291A) was added to the cells, and the cells were incubated for 30 minutes on ice. After incubation, cells were washed with FACS buffer three times and resuspended in 10 μL FACS buffer, then analyzed by flow cytometry (BD FACSCanto II, San Jose, Calif.). 20,000 events were obtained for each sample. The ability to compete with R&D antibody was determined by MFI analysis compared to isotype or buffer control wells.

T3 sequence (Q9NZC2 19-230): as the sequence (Q9NZC2 19-230) above
T3 sequence (O43914 22-113 partner): as the sequence (O43914 22-113 partner) above

B1: RS9.F6: anti-TREM2 antibody clone; VH SEQ ID NO:24, VL SEQ ID NO:35 (antibody, V domains shown)
VH: QVQLQQPGAELVKPGASVKLSCKASGYTFTSYWMHWVKQSPGRGLEWIGRSDPTTGGTNYNEKFKTKATLTVDKPSSTAYMQLSSLTSDDSAVYYCVRTSGTGDYWGQGTSLTVSS
VL: DVVMTQTPLSLPVSLGDQASISCRSSQSLVHNNGNTFLHWYLQKPGQSPKLLIYKVSNRFSGVPDRFSGSGSGTDFTLKISRVEAEDLGVYFCSQTTHVPPTFGGGTKLEIK
On to B1, for which, in assay [1], the “ka” value was determined as 150000 M⁻¹ s⁻¹ and the “kd” value turned out to be 0.00034 s⁻¹. For the same molecule, in assay [2], the p-SYK signal entry is recorded as “robust” and the pERK1/2 signal entry is given as “robust”. Moreover, in assay [3], the STREM2 entry is on record as “NC”.

B2: 3D3.A1: anti-TREM2 antibody clone; VH SEQ ID NO:18, VL SEQ ID NO:29 (antibody, V domains shown)
VH: EVQLQQSGPELVKPGASVKISCKTSGYTLSEYTMHWVIQSHGKSLEWIGGVIPNSGGTSYNQKFRDKASLTVDKSSSTAYLELRSLTSEDSAVYYCARGDDSYRRGYALDYWGQGTSVTVSS
VL: DIVMSQSPSSLAVSVGEKVTMSCKSSQSLLYSSNQKSYLAWYQQKPGQSPKLLIYWASTRESGVPDRFRGSGSGTDFTLTISSVKAEDLAVYYCQQYFSYPPTFGGGTKLEIK
Consider B2, for which, in assay [1], the “ka” value was found to be 480000 M⁻¹ s⁻¹ and the “kd” value was determined as 0.019 s⁻¹. The “Bin by FACS” value in assay [4] is listed as 3. Further, in assay [2], the p-SYK signal entry is “robust” and the pERK1/2 signal result is given as “robust”. In addition, the STREM2 result in assay [3] was “NC”.

B3: 21D11: anti-TREM2 antibody clone; VH SEQ ID NO:14, VL SEQ ID NO:25 (antibody, V domains shown)
VH: QVQLQQSGAELARPGASVKLSCKASGYTFTSYWIQWVKQRPGQGLEWIGTIYPGDGDARYTQKFKGKATLTADKSSSTTYMQLNSLASEDSAVYYCARNGITTAGYYAMDYWGQGTSVTVSS
VL: DIQMTQSPASLSVSVGETVTITCRASENIYSNLAWYQQKQGRSPQLLVYAATNLADGVPSRFSGSGSGTQYSLKINSLQSEDFGYYYCQHFWGTPYTFGGGTKVEIK
Turning to B3, in assay [4], the “Bin by FACS” value is recorded as 1-2. Besides, the STREM2 entry in assay [3] is on record as “NC”.
